Measured values: paper PMC8828050, “Covalent inhibition of endoplasmic reticulum chaperone GRP78 disconnects the transduction of ER stress signals to inflammation and lipid accumulation in diet-induced obese mice” (eLife, 2022)

Legend:
[1] = biological target: T1, Recombinant 6xHis-tagged human GRP78 protein, biotinylated, saturated with 10 μM celastrol (human, UniProt P11021 19-654, biotin (EZ-Link Sulfo-NHS-Biotin); celastrol covalently bound to Cys41 (mapped on recombinant mouse GRP78)); test: SPR; as a1, but the GRP78 chip was saturated with 10 μM celastrol before the peptide; peptide 1.56 to 100 μM; steady-state analysis, 1:1 model; n = 4; settings: both partners purified
T1 construct: 78 kDa glucose-regulated protein (GRP78), human, recombinant from Abcam; Same protein as m2, after saturation with celastrol; The covalent site Cys41 was mapped by LC-MS/MS on mouse GRP78 made in E. coli, not on the human protein on the chip; also called celastrol–GRP78 conjugate; GRP78-coated Sensor Chip saturated by celastrol; source: bought: Abcam; saturated on the chip with 10 μM celastrol
T1 sequence (P11021 19-654): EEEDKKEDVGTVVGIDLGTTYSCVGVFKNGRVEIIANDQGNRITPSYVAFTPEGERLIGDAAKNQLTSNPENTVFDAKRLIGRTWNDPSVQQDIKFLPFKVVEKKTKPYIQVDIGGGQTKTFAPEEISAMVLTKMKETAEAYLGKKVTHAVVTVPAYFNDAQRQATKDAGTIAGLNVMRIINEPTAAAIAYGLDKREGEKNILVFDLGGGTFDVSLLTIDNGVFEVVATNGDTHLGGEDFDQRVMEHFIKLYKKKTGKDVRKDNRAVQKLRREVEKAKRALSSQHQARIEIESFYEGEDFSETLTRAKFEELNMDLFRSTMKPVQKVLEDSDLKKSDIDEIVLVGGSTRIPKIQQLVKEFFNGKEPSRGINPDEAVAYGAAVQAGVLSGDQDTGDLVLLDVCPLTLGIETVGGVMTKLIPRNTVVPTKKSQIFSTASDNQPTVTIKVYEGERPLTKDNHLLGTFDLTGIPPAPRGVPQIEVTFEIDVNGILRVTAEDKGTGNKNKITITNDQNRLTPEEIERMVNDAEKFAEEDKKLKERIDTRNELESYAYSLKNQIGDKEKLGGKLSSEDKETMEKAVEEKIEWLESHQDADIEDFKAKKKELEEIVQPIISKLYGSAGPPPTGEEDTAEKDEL

[2] = biological target: T2, Recombinant 6xHis-tagged human GRP78 protein, biotinylated (human, UniProt P11021 19-654, biotin (EZ-Link Sulfo-NHS-Biotin)); test: SPR; biotinylated GRP78 captured on streptavidin Sensor Chip SA; peptide 2.5 nM to 320 μM flowed at 30 μl/min, 25°C; 10 mM HEPES, 150 mM NaCl, 3 mM EDTA, 0.005% Tween-20, pH 7.4; steady-state analysis, 1:1 model; Biacore X100; average of four runs; settings: both partners purified
T2 construct: 78 kDa glucose-regulated protein (GRP78), human, recombinant from Abcam; Captured on the streptavidin chip through the biotin; No Abcam catalogue number is printed; also called 78 kDa glucose-regulated protein; biotinylated GRP78; source: bought: Abcam
T2 sequence (P11021 19-654): as above

B1: synthetic GRP78-targeting peptide WDLAWMFRLPVG (peptide)
peptide: WDLAWMFRLPVG
notes: synthetic GRP78-targeting peptide, as described in Arap et al., 2004; That it is not a natural stretch is surmised; also called synthetic peptide; source: synthetic peptide (GL Biochem Ltd, Shanghai)
[1]
  Kd: 2230 nM
[2]
  Kd: 17.7 nM
